Data taken from the DeepSol protein solubility set.

Experiment: soluble on expression in E. coli; label from the status in PepcDB or PDB records

Row | Sequence | soluble on expression in E. coli
1 | MTDLHPVKEETFNITAMNNIDPKGFHRDVDTYSETEFGLYMARGANHPRFGYLESWLLPEINLRANIFHFRDGIDEHQDFYFDIAEISHDGHTWHTRDLYVDLISVVGEPVRVDDTDELAAATSAGLITAEDAEKAIDATLLAVDGITRHNDDPMAWLAAMGYPLTWAKNITLKEAE | soluble
2 | MGSDKIHHHHHHMSNNIFTVYGEVPELVEKKTKEIVNDYLGQKIDDFNYVKYNLYESDLTPIIEETLTMPFFSNKKAIVVKNSYVFTGEKFSKDLNHNSDELIKFLEKYDGENLIIFEVYQPKLDERKKLTKTLKKNAQLKKIEQMSEKELKHWIKNTLNNNYKDIKQDALELFIELTGVNYNIVSQELEKLILFIGERPIINKDDIDLIINRSLEQNVFLLTEYIQKGNKNKAIQLVNDLIIMKEEPIKLLALITSNYRLYYQCKILSQKGYSGQQIAKTVNAHPYRVKLALNQSRHYKLESLFNIINACAETDYKLKSSYMDKQLILELFILSL | not soluble
3 | GPLGSMQLKPMEINPEMLNKVLSRLGVAGQWRFVDVLGLEEESLGSVPAPACALLLLFPLTAQHENFRKKQIEELKGQEVSPKVYFMKQTIGNSCGTMGLIHAVANNQDKLGFEDGSVLKQFLSETEKMSPEDRAKCFEKNEAIQAAHDAVAQEGQCRVDDKVNFHFILFNNVDGHLYELDGRMPFPVNHGASSEDTLLKDAAKVCREFTEREQGEVRFSAVALCKAA | soluble
4 | MNAPIEPHRFILEPFEAHRFANLCGQFDEHLRLIEQRLAIEIRNRGNQFELIGEPRTTSAAEQLLRRLYRETKATDLSPETVHLYLQESAVENIDNPAVNEVSVSLRTRKGNIRPRGLNQQRYVKEILANDINFGIGPAGTGKTYLAVACAVDALEREQVRRILLVRPAVEAGEKLGFLPGDLAQKIDPYLRPLYDALYEMLGFEHVAKLIERQVIEIAPLAYMRGRTLNNSFIILDESQNTTLEQMKMFLTRIGFGSTAVITGDITQVDLPRGTKSGLAHVIEVLKDVPGISFTHFQPKDVVRHPLVQRIVEAYDRFEARQPKPEASGKDA | not soluble
5 | MQYVKIKDSIVEQIEAGMLSPRQKLPAERKLAESFDTTRVTLREALSLLEAEGRIYREDRRGWFISPEPLRYDPTQTLNFPNMAKAQNRVPKTELIAAKGTLANKQSARLLQLQPFSDVFRVDRVRYLEDRPVVYVTNYIRPEIFPNLLSFDLTNSLTDIYREHFGVVYQKTRYRISTSTLLGEVAQALRATSGTPAMVVERTNYNQHGELIDCDIEYWRHDAISIESVAELNQ | not soluble
6 | MIHYKIAPSPLDHEWHILLKFTQDNDFPIEISLPNWVPGSYLIRDFSRHITSIHASCNGTSMPLEQIAKNRWHTAAVRGEWQIRYTVYAFDLSVRGSFLTTERGFFDGSCLFLKVEGTETLPHRLELTGIPPEWRIATTLPETGRLVFQTASYDELIDRPVEMGLIEFLDFEAAGIPHTIALNGIYPDFDRDRLVSDIKKICETELAMFSSPAPFEKYLFLLHVGDHIYGGLEHTDSTALLADRHSLPPYGMTDADDAYTTLLGLFSHEYFHAWNVKSIKPAAFAPYDLDKENYTEQLWAFEGITSYYDDLFLARSRTISPEFYLNLLAQGITRVQQTRGRLRQTLAESSFTAWNKFYKPDENSPNAIVSYYQKGALAALCLDLIIRNRSNGRHSLDTVMDKLYREWRDTHSGIPEKHWQIRCQEITGLDLTDFFQTALYSTEDLPLAECLATTGVKLTFLPLPRQHGGGYAEHIFPIPPTGDFGARFKQNADHIVLTHVFNGGSAESAALCPQDKIIALDGYACTDFAAQWARYHVRAKINIHFFRAGILRQTVLTVQATAADTAILHITDRNLLENWLFGLEHHHHHH | not soluble
7 | MGSDKIHHHHHHMTGRRCERTTSPGTGGRLRAEPADFQVQEVPAYLPGGSGEYLYLHVEKTRHTTAHVVRELCAQLGVRDRDVGVAGLKDRHAVTTQWLSLPAKVEPRMGDFSLPGVRILETSRHTNKLGMGHLHGNRFVVRVRGAAGMAEQAGETLATLAQGGVPNYFGPQRFGLGGLNAEEGLRVLRGESELRDPRVRRFLTSSVQSAIFNALVSLRLEREVFDRLLTGDMAKKHDTGGVFLVEDAGAETPRAQRGEVSATGTLFGRKVKPLTADAGALEAEALALFGLSPQVFASRKGDRRLIRVFPAEAEVRPEDDGYVLAFTLPKGSFATSVLREVMKTEVDAPGAGPDTTDEGEAGDGE | not soluble
8 | MGSDKIHHHHHHMIRSLWIAKTGLNAQQTNMDVISNNLANVSTNGFKRQRAVFEDLMYQTIRQPGAQSSEQTMLPSGLQLGTGVRPVSTERIHTQGTFSETGNSKDVAIKGQGFFQVQLPDGTTAYTRDGAFQLDGNGQLVTSSGYQVQPAITVPANATELNIGRDGIVSVKVQGQAATNQIGQLTLTTFINDSGLESMGENLYLETASSGAPNETNPGLNGAGLLYQKYVETSNVNVAEELVSMIQTQRAYEINSKAISSSDQMLQKLTQL | not soluble
9 | MKTIHIYTNGRLEEKRGDIVREFPLVLQVNGREIATLIASPHDLRFLVAGFLRNQGFVESAADFHMLAVCDEFGIANVRIRQELPERLKPVLTSGCGTGITFTLETGGREAAVAPSPAVAPEAVFRLMEELARQADNYRNHGGIHSAAVGDGEGNLLLFAEDIGRHNTLDRIAGEALLKGIDLAGRILVTSGRVSTEMASKCARLGIALVASRTSATDMAATLCHEAGICLLGYVRGGKFTVYTHSDRLLVPEQAAASLPGPVPRGRIPGVTGVILAGGQSSRMGSNKALLPYRGGRFIESIHRQLSEYFDEVIVVTNTPEQYEFLPCRKVTDIHEGMGALAGIHAGLHHSSNPAAFVVACDMPYLNGDLIRHLASMADPGGVLIPESPTGLEPLHAVYGKGCLAAIEATLLSGQRRIVSFFGRTNVNRVNVAQIAAFDPEFNSFRNINTPTDYYRLREIERGEALPAPADERAGASALEHHHHHH | not soluble
10 | MGSDKIHHHHHHMTTRVIALDLDGTLLTSKKTILPASLEALARAREAGYQVIVVTGRHHVAIHPFYQALALDTPAICCNGTYLYDYHAKKVLAADPMPVEQAVSLTAMLAKQQIHGLAYVDDAMLYEHPTGHVIRTRNWAQALPEDQRPVFAQVDSLAQAVREVNAVWKFALTDDDIPRLQRFAQQVGETLGLECEWSWHDQVDIARAGNSKGKRLAQWVADQGLSMQDVMAFGDNYNDLSMLEAAGTGVAMGNAVDEVKARANIVIGDNESTSIAEFIYRQLL | not soluble
11 | SNAMDLQLSKRLQKVANYVPKGARLLDVGSDHAYLPIFLLQMGYCDFAIAGEVVNGPYQSALKNVSEHGLTSKIDVRLANGLSAFEEADNIDTITICGMGGRLIADILNNDIDKLQHVKTLVLQPNNREDDLRKWLAANDFEIVAEDILTENDKRYEILVVKHGHMNLTAKELRFGPFLLSNNTTVFKEKWQNELNKLTFALNSIPNSKMEERAILEDKIQDIKEVLDES | soluble
12 | DRICTNCCAGTKGCKYFSDDGTFVCEGESDPRNPKACTLNCDPRIAYGVCPRSEEKKNDRICTNCCAGTKGCKYFSDDGTFVCEGESDPRNPKACPRNCDPRIAYGICPLA | soluble
13 | MEAVLYVSHGSRIAAARHEAARFVEQCRRAIDIPIQELCFVELAEPDIVTGVDRCVAQGATRVIVVPLLLLSAGHAKHDIPAALDIARRRHPSVDILCGAPFGVHEAMIDIMIDRISEQSAPLDGESMILLVGRGSSDPDTKRDMSAIAALLKEKTNVPHVDVCFLAAIRPTLDEGLERAHASAYRRVFVVPYLLFTGVLMKTIERRLQGFSVSDKQWHLCSYLGDHPRLVLLIQQQVLSLSSVKKGA | soluble
14 | MFVELNNLLNTTPDRAEQGKLTLLCDAKTDGSFLVHHFLSFYLKANCKVCFVALIQSFSHYSIVGQKLGVSLTMARERGQLVFLEGLKSAVDVVFQAQKEPHPLQFLREANAGNLKPLFEFVREALKPVDSGEARWTYPVLLVDDLSVLLSLGMGAVAVLDFIHYCRATVCWELKGNMVVLVHDSGDAEDEENDILLNGLSHQSHLILRAEGLATGFCRDVHGQLRILWRRPSQPAVHRDQSFTYQYKIQDKSVSFFCQRNVSCCSVT | soluble
15 | MSLCGIVAFYYPEINDKQAAIGKMMATIQHRGPSSDGMYTNDKVALGFRRLSIIDLRCGSQPIYNEDRSRAIIFNGEIYNFKPLREELIKAGHTFSTKADTEVILHGYEEWGMDGILKRVRGMFAFIIWDDNTQTMYGARDFFGIKPMYYQDVDGHLLVGSELKSFLAFPHFKKELNTEAVKPYLMNQYNDLKETFFKGVYRFQPGHWFEYKDGKMKTHQYWDAEYKDNNLSFEETVKKINEDLKETVDLYRNADVKVGAFLSEGVDSSFLTALLDPDEVFSIGFDDNTYDEASKAKALADINGWHFYADKVYSEEAMRDFPEMQYHMDEPDANPSIIPLWYLCKLARKHVTVALSGEGADELFAGYVNYGMHTHNNVIKVFTDKLKKLPKGKRVKLAHKIKKMPNFPGKVHLYTNLAEPSEFYVGQSVIYDMDYPTIFTSKDANAVLQPSYRNKLTVNGNYQEDFKKVKDLDNVKQMQYIDLHHFMLNDIEQKADKISMAHSLELRVPYLDVKIAKLANSIPSKYLVNKYDTKYALRKASEQVLPDEWAKRPKLGFPTPIKQWLQEERFYKQVRDLFSEDFVNDIFEQKKILDLLDENYNGDGSHRRQIWVIYTFLVWYKLFFVDYEEGHHHHHH | soluble
16 | MRSDTSVEPEGANFIAEFFGHRVYPEVVSTEAARNDQATGTCPFLTAAKLVETSCVKAETSRGVCVVNTAVDNERYDWLVCPNRALDPLFMSAASRKLFGYGPTEPLQFIAAPTLADQAVRDGIREWLDRGVHVVAYFQEKLGGELSISKTDSSPEFSFDWTLAEVESIYPVPKIKRYGVLEIQTMDFHGSYKHAVGAIDIALVEGIDFHGWLPTPAGRAALSKKMEGPNLSNVFKRTFYQMAYKFALSGHQRCAGTGFAIPQSVWKSWLRHLANPTLIDNGDGTFSLGDTRNDSENAWIFVFELDPDTDASPRPLAPHLEIRVNVDTLIDLALRESPRAALGPSGPVATFTDKVEARMLRFWPKTRRRRSTTPGGQRGLFDA | soluble
17 | MNVMTEKKKLVVWVPLPPNSSWRGEGIAQTIENIVRNISPERKIEIVVSSKHAEMLVGLEKSNPNISVLTLGFRGKSTKKTIGYVSLNEVEKDSLWDLVIAKLPIIPAIFRKVGMYVSQLEYLLSLYIYSHLQRRGRFSSNNCRVWLPTPIIPYTHLLGGEKFVSFWDPFVFEYNKEFPLTAEYFVKKLSKHFSNASAIITQSRANKDYLETVMGIESSKINVIYNGSPDYSEFKKQQSNLSFSEVWSKSEFSGASKKAAFEALVNHQLNFSVLWRLLTKNKVSNRKIVLISTQNRPYKGFDQLFVLINELCLRRDNYDFIFTCNVPTKLKERYPSLYERIHEVTRVDNYLHASLYLMSDIVLHPSNVEGGLGAYPQYEASSVGKPSLINTGRHVNEMAEEGFDVDLLSSNFVNTKETVDKIEKLINSEEYMRQNIDAINRLKISWKESASNYENVFFGNENA | not soluble
18 | AQNSTVKINGLTLVQSSNQLNEAITGVTIDLKKAEIGKIVTLTVDDNKDQLTGLINEFIKQYNDTMTFLTNLTGYNNETKQGGVFQGDPQFRNLKLNLNKWATTPLANQEGPIRSLADLGIITNKQGLLEIKQDKFKTALDNHYKEIGALFAKTAKANDTGINVKSINSTVKSGTYDVVLTEFTPGVSMSGTIGGLSAISSDGITLTGSADLSGLSINVFSGSAGSRGQITVTDGIAVQLSSLLDAYIEIKGDLEQRKDQLNNQVKQLNKIQNEIDIRRKSIETRYLKQFTALDTLLSQLQS | soluble
19 | MSSHTATKYDVFLSFRGHDTRHNFISFLYKELVRRSIRTFKDDKELENGQRFSPELKSPIEVSRFAVVVVSENYAASSWCLDELVTIMDFEKKGSITVMPIFYGVEPNHVRWQTGVLAEQFKKHASREDPEKVLKWRQALTNFAQLSGDCSGDDDSKLVDKIANEISNKKTIYATI | soluble
